This is an account of results in publication PMC3091828.

Like-named read-outs stand apart in the source and are kept apart here.

Assay [1] has as its target CL-arrestin-2-L33C, bimane-labeled (UniProt P17870). Put plainly: fluorescence polarisation. For orientation: In fluorescence polarisation assays a small probe gives low polarisation when free and higher when bound to something large.
Assay [2] shares this target. Nature of the assay: fluorescence polarisation. The source holds these as a separate data set.

MBP-parkin, sequence (O60260 whole entry): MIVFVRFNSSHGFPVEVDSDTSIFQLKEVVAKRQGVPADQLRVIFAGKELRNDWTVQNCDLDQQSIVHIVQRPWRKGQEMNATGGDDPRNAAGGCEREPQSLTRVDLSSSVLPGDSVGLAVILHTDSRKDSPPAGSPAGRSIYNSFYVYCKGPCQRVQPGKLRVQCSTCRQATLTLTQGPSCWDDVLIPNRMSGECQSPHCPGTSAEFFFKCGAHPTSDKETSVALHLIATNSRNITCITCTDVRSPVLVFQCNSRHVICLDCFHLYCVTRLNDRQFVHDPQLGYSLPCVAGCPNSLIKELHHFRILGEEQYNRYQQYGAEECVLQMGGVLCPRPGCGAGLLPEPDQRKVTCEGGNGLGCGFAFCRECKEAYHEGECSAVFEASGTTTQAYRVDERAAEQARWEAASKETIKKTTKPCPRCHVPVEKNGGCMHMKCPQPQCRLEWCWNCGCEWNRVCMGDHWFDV

A word on the Kd: it is the concentration at which binding is half-saturated. In the case of “MBP-parkin (from UniProt O60260 1-465) (enzyme)”, the figures for the Kd in assay [1] and in assay [2] were 20.1 µM and 19 µM, respectively.
